Switch fluorescence ratio data for 79 sequences are collected here from the supplement of paper PMC10126150.

The subject of the data set is ATP. Kind of data set: switch fluorescence ratio, 500 uM ATP over buffer (Cy3 cluster intensity, sum of 5 cycles each) (fold (ratio)); higher = stronger signal-on switching upon ATP binding; sequences stand for … in TCGTCGGCAGCGTCAGATGTGTATAAGAGACAGTTTTTTTTTTTTTTTTTTTTTTTTT…TC. The settings on record: aptamer strand: ATP DNA aptamer (quencher-CACCTGGGGGAGTATTGCGGAGGAAGG + anchor), 100 nM annealed; ATP concentration: 500 uM. The method in brief: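 Values give the fluorescence ratio for each switch-domain sequence, averaged from per-cluster ratios of summed target-cycle to summed buffer-cycle Cy3 intensity. The Cy3-labelled switching-strand clusters sat on a modified Illumina MiSeq flow-cell, were annealed to 100 nM quencher-labelled ATP aptamer, and were imaged in selection buffer, then after 15 min with 500 uM ATP at 22 °C. Five cycles ran with NaOH stripping and re-annealing between them, and clusters outside 100-1000 RFU were excluded.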

± gives the standard deviation of the averaged measurements.
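Also: ATP exposure 15 min at 22 °C before imaging.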

Regarding CCCTGAATTG, the switch fluorescence ratio turned out to be 0.984 ± 0.053.
In the case of CCCTGAGGAT, the switch fluorescence ratio turned out to be 1.01 ± 0.031.
The result for CCCTTGGTTA reads 1.03 ± 0.032; that for CCCTTGTACG, 1.03 ± 0.036.
The same measure for CCGAAACTTG: 1.07 ± 0.038; for CCGAACGTTT: 2.31 ± 0.47.
The result for CCGAAGGGTA reads 1.1 ± 0.022; that for CCGAATACCA, 1.61 ± 0.13; that for CCGAGAAGAG, 1.58 ± 0.021.
Take CCGAGCGCTT: the switch fluorescence ratio is 4.69 ± 1.4.
CCGAGTATGT: the switch fluorescence ratio came to 1.19 ± 0.034.
The same measure for CCGAGTTGTG: 1.05 ± 0.041; for CCGATGAGCT: 1.42 ± 0.035; for CCGATTTTTA: 0.977 ± 0.053.
The same measure for CCGCAGGGTA: 1.259 ± 0.0092; for CCGCATGGGG: 1.49 ± 0.057.
With CCGCATTGGG, the switch fluorescence ratio is 3.35 ± 0.93.
Regarding CCGCCGAGGT, the switch fluorescence ratio stood at 1.68 ± 0.034.
The same measure for CCGCGACAAG: 2.18 ± 0.086; for CCGCTAGTGG: 1.196 ± 0.0036; for CCGCTCGAAT: 3.36 ± 0.38.
As for CCGCTCGGGG, the switch fluorescence ratio was 1.05 ± 0.053.
The result for CCGCTGGATA reads 1.51 ± 0.18; that for CCGCTGTTTT, 1.16 ± 0.23; that for CCGCTTTTTT, 1.28 ± 0.23.
The same measure for CCGGAACATG: 1.23 ± 0.058; for CCGGACGGAG: 1.04 ± 0.026.
With CCGGAGGGGT, the switch fluorescence ratio worked out at 1.38 ± 0.018.
For CCGGATATGG, the switch fluorescence ratio amounted to 1.135 ± 0.0024.
The result for CCGGCACCTG reads 1.02 ± 0.025; that for CCGGCATCGG, 1.02 ± 0.059.
The same measure for CCGGCGGAAG: 1.003 ± 0.0011.
The same measure for CCGGCGTGGC: 1.36 ± 0.082; for CCGGCTAGTG: 1.03 ± 0.034; for CCGGCTGAGG: 1.03 ± 0.017.
Turning to CCGGCTTTCC, the switch fluorescence ratio is 1.15 ± 0.027.
On to CCGGGATCTT, for which the switch fluorescence ratio amounted to 1.05 ± 0.013.
The result for CCGGGCCAGG reads 1.255 ± 0.0081; that for CCGGGCGTGG, 1.09 ± 0.025; that for CCGGGCTCTG, 1.06 ± 0.013.
The same measure for CCGGGGAGTG: 1.14 ± 0.25.
The same measure for CCGGGGCCTG: 1.05 ± 0.095; for CCGGGGGACC: 1.04 ± 0.021; for CCGGGGGCGA: 2.64 ± 1.4.
As to CCGGGGGCTG, the switch fluorescence ratio worked out at 1.04 ± 0.068.
The same measure for CCGGGGGGGA: 1.13 ± 0.23; for CCGGGGGGGC: 1.32 ± 0.66; for CCGGGGGTTC: 1.05 ± 0.062.
Turning to CCGGGGGTTG, the switch fluorescence ratio was determined as 1.04 ± 0.057.
The result for CCGGGGTCGA reads 1.57 ± 0.77.
Turning to CCGGGTATCC, the switch fluorescence ratio worked out at 1.19 ± 0.18.
The same measure for CCGGGTCTGG: 0.992 ± 0.013.
The result for CCGGGTGCTA reads 2.36 ± 1.4.
CCGGGTGGGT: the switch fluorescence ratio was found to be 1.11 ± 0.13.
The result for CCGGGTGGTA reads 1.17 ± 0.015; that for CCGGTAAGTC, 1.27 ± 0.026; that for CCGGTAGGGT, 1.36 ± 0.61.
The same measure for CCGGTATTTG: 1.021 ± 0.0077.
The result for CCGGTCTATT reads 1 ± 0.048; that for CCGGTCTTGA, 1.01 ± 0.039.
Take CCGGTGTGTA: the switch fluorescence ratio is 1.03 ± 0.029.
As to CCGGTGTGTT, the switch fluorescence ratio came out at 1.03 ± 0.086.
The result for CCGGTTAAGC reads 1.2 ± 0.057.
Regarding CCGGTTAGGG, the switch fluorescence ratio came to 0.991 ± 0.029.
The same measure for CCGGTTCAGG: 1.05 ± 0.016.
The result for CCGGTTGTGG reads 1.01 ± 0.02.
The same measure for CCGGTTGTTG: 1.027 ± 0.0079.
On to CCGTATGTTT, for which the switch fluorescence ratio amounted to 1.11 ± 0.091.
The same measure for CCGTCATCTG: 1.04 ± 0.029; for CCGTCATTGT: 1.11 ± 0.02.
The result for CCGTCTACGC reads 1.16 ± 0.048; that for CCGTCTGTTG, 1.03 ± 0.029.
The same measure for CCGTGAATAT: 2.21 ± 0.083; for CCGTGGAAAC: 1.14 ± 0.026; for CCGTGGTATA: 1.151 ± 0.0068.
As to CCGTGTATTT, the switch fluorescence ratio stood at 1.05 ± 0.052.
The same measure for CCGTGTCATT: 1.013 ± 0.0023; for CCGTGTGGCT: 1.027 ± 0.0022; for CCGTGTGGGT: 1.01 ± 0.018.
